Measurements reported in publication PMC6314159.

Molecular target: TP53 (Homo sapiens) (UniProt P04637)
Experiment: EMSA-seq

Chain of TP53 (Homo sapiens) (P04637 whole entry): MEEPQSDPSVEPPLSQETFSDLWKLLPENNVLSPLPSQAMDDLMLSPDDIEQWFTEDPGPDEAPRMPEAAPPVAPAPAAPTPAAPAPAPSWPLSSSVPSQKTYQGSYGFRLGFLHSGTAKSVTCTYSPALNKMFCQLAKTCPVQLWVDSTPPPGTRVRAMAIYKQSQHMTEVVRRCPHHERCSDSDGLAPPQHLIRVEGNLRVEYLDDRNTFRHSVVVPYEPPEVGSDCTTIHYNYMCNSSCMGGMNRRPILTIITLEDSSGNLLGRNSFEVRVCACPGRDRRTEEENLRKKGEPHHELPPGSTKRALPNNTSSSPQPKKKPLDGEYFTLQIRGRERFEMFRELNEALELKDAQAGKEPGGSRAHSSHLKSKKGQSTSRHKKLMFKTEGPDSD

Sequence: GATGGACCCTATACGCGGCCGCCCTGGAGAATCCCGGTGCCGAGGCCGCTCAATTGGTCGTAGACAGCTCTAGCACCGCTTAAACGCACGTACGCGCTGTCCCCCGCGTTTTAACCGCCAAGGGGATTACTCCCTAGTCTCCAGGCACGTGTCAGATATATACATCCTGTGCGGGCATGTCCGGGCATGTCCGCCGGTGCCAGTCGGATAGTGTTCC (double strand) [High SHL 8 nucleosome (linker)]
- Kd: 19 nM
